Tests used:
Experiment in all cases: cell_activity
[1] = test system: SB03759 degron-A(EAAAK)3A-ZF10-1-minKRAB (synthetic construct); conditions: mCherry increase with 1 uM pomalidomide vs no drug (release of repression); U87-MG; text describes the reporter as SEQ ID NO 56 core promoter with four …
[2] = test system: SB03937 ZF10-HDAC4-ecpd-degron (synthetic construct); conditions: mCherry increase with 1 uM pomalidomide vs no drug; represses without drug; U87-MG
[3] = test system: SB03758 degron-A(EAAAK)3A-ZF10-minKRAB (synthetic construct); conditions: mCherry increase with 1 uM pomalidomide vs no drug (release of repression); U87-MG
[4] = test system: SB03936 degron-A(EAAAK)3A-HDAC4-ZF10-1 (synthetic construct); conditions: mCherry increase with 1 uM pomalidomide vs no drug; represses without drug; U87-MG

Measured: activity

Sequence of SB03759 degron-A(EAAAK)3A-ZF10-1-minKRAB (synthetic construct) (chain, as listed by the source): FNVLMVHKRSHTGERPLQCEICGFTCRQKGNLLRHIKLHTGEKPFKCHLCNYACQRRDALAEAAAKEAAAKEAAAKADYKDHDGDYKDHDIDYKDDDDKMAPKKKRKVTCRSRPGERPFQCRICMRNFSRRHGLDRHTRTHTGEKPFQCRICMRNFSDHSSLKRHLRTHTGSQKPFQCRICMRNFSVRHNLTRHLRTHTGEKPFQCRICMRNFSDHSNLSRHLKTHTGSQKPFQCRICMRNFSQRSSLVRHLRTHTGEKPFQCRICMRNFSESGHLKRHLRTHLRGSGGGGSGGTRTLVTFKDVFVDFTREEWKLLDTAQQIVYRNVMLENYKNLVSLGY
Sequence of SB03758 degron-A(EAAAK)3A-ZF10-minKRAB (synthetic construct) (chain, as listed by the source): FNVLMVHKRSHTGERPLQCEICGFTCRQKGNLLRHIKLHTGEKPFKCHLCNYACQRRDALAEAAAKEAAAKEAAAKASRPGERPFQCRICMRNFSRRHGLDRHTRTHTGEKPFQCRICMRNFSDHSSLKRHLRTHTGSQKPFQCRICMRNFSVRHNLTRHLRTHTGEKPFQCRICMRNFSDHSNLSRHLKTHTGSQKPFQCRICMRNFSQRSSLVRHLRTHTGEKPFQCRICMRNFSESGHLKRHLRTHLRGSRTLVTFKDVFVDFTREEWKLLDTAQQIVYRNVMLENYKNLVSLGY
Sequence of SB03936 degron-A(EAAAK)3A-HDAC4-ZF10-1 (synthetic construct) (chain, as listed by the source): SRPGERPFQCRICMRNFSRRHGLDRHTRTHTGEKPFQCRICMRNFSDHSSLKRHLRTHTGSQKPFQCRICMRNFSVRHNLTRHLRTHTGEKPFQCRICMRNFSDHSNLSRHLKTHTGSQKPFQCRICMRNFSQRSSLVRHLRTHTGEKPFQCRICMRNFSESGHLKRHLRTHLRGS

CGGGTTTCGTAACAATCGCATGAGGATTCGCAACGCCTTCGGCGTAGCCGATGTCGCGCTCCCGTCTCAGTAAAGGTCGGCGTAGCCGATGTCGCGCAATCGGACTGCCTTCGTACGGCGTAGCCGATGTCGCGCGTATCAGTCGCCTCGGAACGGCGTAGCCGATGTCGCGCATTCGTAAGAGGCTCACTCTCCCTTACACGGAGTGGATAACTAGTTCTAGAGGGTATATAATGGGGGCCA (double strand) [4xZF10-1 binding sites + core promoter (mCherry reporter)]
> 4 fold: all assays above
